Measured values from paper PMC10522483.

Biological target: S. lophii 70S ribosome (Spraguea lophii (endogenous in spores))
Assay: cryo-EM structure; electron cryo-tomography and subtomogram averaging of ribosomes in situ in polar tubes of spores germinated on the grid; dimer map 14.3 Å (C2 symmetry, 1,191 particles), half-dimer map 10.8 Å; single-particle atomic model fitted into the maps

S. lophii 70S ribosome (complex)
percent of ribosome particles in 100S dimers: 80% | stoichiometry N: 2
